Results on three substances are retold here after patent US6770458.

Holding throughout (assay): cell-based or functional assay
The target of assay [1] is p53 fused to the GAL4 DNA-binding domain (pAS2) (UniProt P04386).
Assay [2] addresses CDK2 fused to the GAL4 DNA-binding domain (pAS2) (UniProt P04386).
Assay [3] deals with Smad7 (expression construct, tag not specified).

Chain of p53 fused to the GAL4 DNA-binding domain (pAS2) (P04386 1-147): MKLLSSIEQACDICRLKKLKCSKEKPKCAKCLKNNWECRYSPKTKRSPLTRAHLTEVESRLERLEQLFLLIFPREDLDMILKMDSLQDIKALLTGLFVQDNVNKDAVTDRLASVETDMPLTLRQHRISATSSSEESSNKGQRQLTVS
Chain of CDK2 fused to the GAL4 DNA-binding domain (pAS2) (P04386 1-147): as above

In assay [1], “FKBP12.6 in pACT (from UniProt Q9Z2I2 1-108)” yielded a β-galactosidase Activity (relative scale) of 1.1.
“STRAP (Serine-Threonine Kinase Receptors Associated Protein) in pACT (from UniProt Q9Z1Z2 1-350)”: the β-galactosidase Activity (relative scale) in assay [2] was 1.2; in assay [1] it was under 1.
Consider “STRAP (expression construct, tag not specified) (from UniProt Q9Z1Z2 1-350)”, for which the fold repression of (CAGA)9 MLP-Luc reporter activity in HepG2 cells in assay [3] amounted to 105 fold.
